Conditions in all cases: none (in vitro transcript); 20 mM Tris-HCl pH 8, 50 mM NaCl, 1 mM MgCl2; 5 nM tRNA, 30 min incubation; temperature not stated
Data set [1] deals with EPRS linker (whole linker) (human). Description: fluorescence quenching.
Data set [2] has as its system EPRS linker R1R2R3 (human). Description: fluorescence anisotropy. For orientation: In fluorescence polarisation assays a small probe gives low polarisation when free and higher when bound to something large.
A further data set deals with EPRS linker R2R3 (human). Briefly: fluorescence anisotropy.
The subject of a further data set is EPRS linker R1R2 (human). Description: fluorescence anisotropy.

Our source for the Kd values is paper PMC9967848.

The Kd is the concentration at which binding is half-saturated. High values mean lower affinity, low ones higher affinity. On to bovine tRNATrp, for which, in data set [1], the Kd was 511 nM.

For human tRNAGlu, the equilibrium dissociation constant (Kd) in data set [1] is 886 nM.

With human tRNALys3, the Kd in data set [2] is 43 nM; in the data set with EPRS linker R2R3 (human) it was above 10000 nM; in the data set on EPRS linker R1R2 (human) it was 209 nM; in data set [1], 589 nM.

In data set [1], human tRNAPro registered a Kd of 449 nM.
